{"source": "patent US20220267435A1", "molecular_target": "CD19 (UniProt P15391)", "sequence (P15391 20-556 limits assumed)": "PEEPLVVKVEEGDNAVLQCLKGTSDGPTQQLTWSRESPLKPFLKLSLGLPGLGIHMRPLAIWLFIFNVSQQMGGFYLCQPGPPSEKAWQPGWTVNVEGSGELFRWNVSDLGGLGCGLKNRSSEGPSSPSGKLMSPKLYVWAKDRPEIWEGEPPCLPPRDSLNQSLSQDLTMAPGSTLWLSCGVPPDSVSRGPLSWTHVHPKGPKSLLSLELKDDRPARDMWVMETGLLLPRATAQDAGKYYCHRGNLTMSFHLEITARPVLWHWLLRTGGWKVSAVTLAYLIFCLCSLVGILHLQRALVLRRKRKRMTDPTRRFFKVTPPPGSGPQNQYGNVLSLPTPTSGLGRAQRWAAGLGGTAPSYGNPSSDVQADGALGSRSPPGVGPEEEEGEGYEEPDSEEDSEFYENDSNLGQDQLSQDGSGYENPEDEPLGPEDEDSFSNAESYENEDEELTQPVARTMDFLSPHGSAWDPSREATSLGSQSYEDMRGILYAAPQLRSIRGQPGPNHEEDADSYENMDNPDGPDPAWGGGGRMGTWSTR", "experiment": "cell-based or functional assay"}
{"substance": "BG-conjugated FMC63 antibody", "values": [{"measurement": "FMC63-BG concentration at the peak of SNAP-synNotch activation (TagBFP)", "result": 0.25, "unit": "µg/mL"}, {"measurement": "FMC63-BG concentration at which SNAP-synNotch activation is completely inhibited (hook effect)", "result": 10, "unit": "µg/mL"}, {"measurement": "TagBFP MFI; 0.01 million SNAP-synNotch cells, 0.01 million Raji cells, 0.1 µg/mL FMC63-BG, 48 h", "result": 1820, "unit": "MFI"}, {"measurement": "TagBFP MFI; 0.01 million SNAP-synNotch cells, 0.01 million Raji cells, 1.0 µg/mL FMC63-BG, 48 h", "result": 806, "unit": "MFI"}, {"measurement": "TagBFP MFI; 0.01 million SNAP-synNotch cells, 0.1 million Raji cells, 0.1 µg/mL FMC63-BG, 48 h", "result": 3400, "unit": "MFI"}, {"measurement": "TagBFP MFI; 0.01 million SNAP-synNotch cells, 0.1 million Raji cells, 1.0 µg/mL FMC63-BG, 48 h", "result": 2470, "unit": "MFI"}, {"measurement": "TagBFP MFI; 0.01 million SNAP-synNotch cells, 0.5 million Raji cells, 0.1 µg/mL FMC63-BG, 48 h", "result": 1810, "unit": "MFI"}, {"measurement": "TagBFP MFI; 0.01 million SNAP-synNotch cells, 0.5 million Raji cells, 1.0 µg/mL FMC63-BG, 48 h", "result": 5350, "unit": "MFI"}, {"measurement": "TagBFP MFI; 0.01 million SNAP-synNotch cells, 1 million Raji cells, 0.1 µg/mL FMC63-BG, 48 h", "result": 1520, "unit": "MFI"}, {"measurement": "TagBFP MFI; 0.01 million SNAP-synNotch cells, 1 million Raji cells, 1.0 µg/mL FMC63-BG, 48 h", "result": 4430, "unit": "MFI"}, {"measurement": "TagBFP MFI; 0.1 million SNAP-synNotch cells, 0.01 million Raji cells, 0.1 µg/mL FMC63-BG, 48 h", "result": 1020, "unit": "MFI"}, {"measurement": "TagBFP MFI; 0.1 million SNAP-synNotch cells, 0.01 million Raji cells, 1.0 µg/mL FMC63-BG, 48 h", "result": 984, "unit": "MFI"}, {"measurement": "TagBFP MFI; 0.1 million SNAP-synNotch cells, 0.1 million Raji cells, 0.1 µg/mL FMC63-BG, 48 h", "result": 2540, "unit": "MFI"}, {"measurement": "TagBFP MFI; 0.1 million SNAP-synNotch cells, 0.1 million Raji cells, 1.0 µg/mL FMC63-BG, 48 h", "result": 2260, "unit": "MFI"}, {"measurement": "TagBFP MFI; 0.1 million SNAP-synNotch cells, 0.5 million Raji cells, 0.1 µg/mL FMC63-BG, 48 h", "result": 1940, "unit": "MFI"}, {"measurement": "TagBFP MFI; 0.1 million SNAP-synNotch cells, 0.5 million Raji cells, 1.0 µg/mL FMC63-BG, 48 h", "result": 4570, "unit": "MFI"}, {"measurement": "TagBFP MFI; 0.1 million SNAP-synNotch cells, 1 million Raji cells, 0.1 µg/mL FMC63-BG, 48 h", "result": 1180, "unit": "MFI"}, {"measurement": "TagBFP MFI; 0.1 million SNAP-synNotch cells, 1 million Raji cells, 1.0 µg/mL FMC63-BG, 48 h", "result": 4220, "unit": "MFI"}, {"measurement": "TagBFP MFI; 0.5 million SNAP-synNotch cells, 0.01 million Raji cells, 0.1 µg/mL FMC63-BG, 48 h", "result": 732, "unit": "MFI"}, {"measurement": "TagBFP MFI; 0.5 million SNAP-synNotch cells, 0.01 million Raji cells, 1.0 µg/mL FMC63-BG, 48 h", "result": 667, "unit": "MFI"}, {"measurement": "TagBFP MFI; 0.5 million SNAP-synNotch cells, 0.1 million Raji cells, 0.1 µg/mL FMC63-BG, 48 h", "result": 1570, "unit": "MFI"}, {"measurement": "TagBFP MFI; 0.5 million SNAP-synNotch cells, 0.1 million Raji cells, 1.0 µg/mL FMC63-BG, 48 h", "result": 1490, "unit": "MFI"}, {"measurement": "TagBFP MFI; 0.5 million SNAP-synNotch cells, 0.5 million Raji cells, 0.1 µg/mL FMC63-BG, 48 h", "result": 1120, "unit": "MFI"}, {"measurement": "TagBFP MFI; 0.5 million SNAP-synNotch cells, 0.5 million Raji cells, 1.0 µg/mL FMC63-BG, 48 h", "result": 2680, "unit": "MFI"}, {"measurement": "TagBFP MFI; 0.5 million SNAP-synNotch cells, 1 million Raji cells, 0.1 µg/mL FMC63-BG, 48 h", "result": 955, "unit": "MFI"}, {"measurement": "TagBFP MFI; 0.5 million SNAP-synNotch cells, 1 million Raji cells, 1.0 µg/mL FMC63-BG, 48 h", "result": 2880, "unit": "MFI"}, {"measurement": "TagBFP MFI; 1 million SNAP-synNotch cells, 0.01 million Raji cells, 0.1 µg/mL FMC63-BG, 48 h", "result": 550, "unit": "MFI"}, {"measurement": "TagBFP MFI; 1 million SNAP-synNotch cells, 0.01 million Raji cells, 1.0 µg/mL FMC63-BG, 48 h", "result": 519, "unit": "MFI"}, {"measurement": "TagBFP MFI; 1 million SNAP-synNotch cells, 0.1 million Raji cells, 0.1 µg/mL FMC63-BG, 48 h", "result": 1160, "unit": "MFI"}, {"measurement": "TagBFP MFI; 1 million SNAP-synNotch cells, 0.1 million Raji cells, 1.0 µg/mL FMC63-BG, 48 h", "result": 1220, "unit": "MFI"}, {"measurement": "TagBFP MFI; 1 million SNAP-synNotch cells, 0.5 million Raji cells, 0.1 µg/mL FMC63-BG, 48 h", "result": 979, "unit": "MFI"}, {"measurement": "TagBFP MFI; 1 million SNAP-synNotch cells, 0.5 million Raji cells, 1.0 µg/mL FMC63-BG, 48 h", "result": 1810, "unit": "MFI"}, {"measurement": "TagBFP MFI; 1 million SNAP-synNotch cells, 1 million Raji cells, 0.1 µg/mL FMC63-BG, 48 h", "result": 748, "unit": "MFI"}, {"measurement": "TagBFP MFI; 1 million SNAP-synNotch cells, 1 million Raji cells, 1.0 µg/mL FMC63-BG, 48 h", "result": 1970, "unit": "MFI"}, {"measurement": "lowest FMC63-BG concentration with significant SNAP-synNotch activation (TagBFP)", "result": 0.04, "unit": "µg/mL"}]}
